Values belong to the substance of their own block, whether it stands above or below them.
Assays:
Test in all cases: high-speed atomic force microscopy (HS-AFM); channel held by its C-terminal His-tag on Ni2+-coated mica, reconstituted into a DMPC bilayer, extracellular side imaged; 20 mM Tris pH 7.4, 150 mM NaCl (WT, E32Q/N49K) or 50 mM NaCl (N49K); 5 or 10 frames/s; no membrane potential
[1] = target: NavAb channel E32Q/N49K mutant, C-terminal cytoplasmic domain truncated, C-terminal His-tag (Arcobacter butzleri) (UniProt A8EVM5)
[2] = target: NavAb channel N49K mutant, C-terminal cytoplasmic domain truncated, C-terminal His-tag (Arcobacter butzleri) (UniProt A8EVM5)
[3] = target: NavAb channel, wild type, C-terminal cytoplasmic domain truncated, C-terminal His-tag (Arcobacter butzleri) (UniProt A8EVM5)

Substance: NavAb channel E32Q/N49K mutant, C-terminal cytoplasmic domain truncated, C-terminal His-tag (from UniProt A8EVM5 1-230) (natural protein)
size of the VSD-VSD oligomer between channels [1]: 2
stoichiometry N [1]: 4

Substance: NavAb channel N49K mutant, C-terminal cytoplasmic domain truncated, C-terminal His-tag (from UniProt A8EVM5 1-230) (natural protein)
stoichiometry N [2]: 4

stoichiometry N [3]: 4
Substance: NavAb channel, wild type, C-terminal cytoplasmic domain truncated, C-terminal His-tag (from UniProt A8EVM5 1-230) (natural protein)

Reference: article PMC10730821
